{
  "source": "paper doi:10.1101/525485",
  "about": "(bioRxiv, 2019)",
  "key": {"cross-linking": {"target": "the molecule itself", "assay": "cross-linking"}, "human PCNA, purified": {"target": "human PCNA, purified (human, UniProt P12004 1-261)", "sequence (P12004 whole entry)": "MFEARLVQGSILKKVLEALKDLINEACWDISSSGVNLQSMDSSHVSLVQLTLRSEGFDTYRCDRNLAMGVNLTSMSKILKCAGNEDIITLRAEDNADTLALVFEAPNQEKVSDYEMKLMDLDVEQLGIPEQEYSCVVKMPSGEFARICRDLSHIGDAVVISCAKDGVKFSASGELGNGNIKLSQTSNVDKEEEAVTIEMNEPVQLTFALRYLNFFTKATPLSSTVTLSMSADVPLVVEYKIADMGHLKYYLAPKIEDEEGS", "assay": "ITC"}, "ITC": {"target": "the molecule itself", "assay": "ITC"}, "native gel or EMSA": {"target": "the molecule itself", "assay": "native gel or EMSA"}},
  "data": [
    {"binder": "p12 subunit of human DNA polymerase delta, purified, GST tag cleaved off (natural protein) MGRKRLITDSYPVVKRREGPAGHSKGELAPELGEEPQPRDEEEAELELLRQFDLAWQYGPCTGITRLQRWCRAKQMGLEPPPEVWQVLKTHPGDPRFQCSLWHLYPL", "values": [
      {"measurement": "stoichiometry N", "setting": "cross-linking", "result": 2},
      {"measurement": "Kd", "setting": "human PCNA, purified", "result": 10, "unit": "µM"},
      {"measurement": "Kd", "setting": "ITC", "result": "~0.146", "unit": "µM"},
      {"measurement": "dH", "setting": "ITC", "result": "~-7.61", "unit": "kJ/mol"},
      {"measurement": "stoichiometry N", "setting": "ITC", "result": "~0.6"}
    ]},
    {"binder": "p12 L104A, Y105A mutant, purified (natural protein) MGRKRLITDSYPVVKRREGPAGHSKGELAPELGEEPQPRDEEEAELELLRQFDLAWQYGPCTGITRLQRWCRAKQMGLEPPPEVWQVLKTHPGDPRFQCSLWHAAPL", "values": [
      {"measurement": "stoichiometry N", "setting": "cross-linking", "result": 2}
    ]},
    {"binder": "Cdm1, fourth subunit of S. pombe DNA polymerase delta, purified (natural protein) MKKRTTQAKKSGQNTNIRDVFPHVVRSNSSQSHIGKKVSSEQSPTPDVTITTKTLDERIKEDDELSKEVEEAWNQIMAERISEPIHCENITKVEFILHHFDTTARYGPYLGMTRMQRWKRAKNFNLNPPETVGKILMLEEADEENRKRESLFYDLQTIPG", "values": [
      {"measurement": "binding result", "setting": "native gel or EMSA", "result": "binds"}
    ]}
  ]
}
